What was measured:
[1] = target: GST-TORC2 (aa 161-181) Ser171Ala (UniProt Q53ET0)
[2] = target: T1, GST-TORC2 (aa 161-181), wild-type (UniProt Q53ET0)
T1 sequence: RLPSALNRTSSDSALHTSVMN

Sequence of GST-TORC2 (aa 161-181) Ser171Ala (Q53ET0 whole entry S171A, looked up, the tested form may be a part): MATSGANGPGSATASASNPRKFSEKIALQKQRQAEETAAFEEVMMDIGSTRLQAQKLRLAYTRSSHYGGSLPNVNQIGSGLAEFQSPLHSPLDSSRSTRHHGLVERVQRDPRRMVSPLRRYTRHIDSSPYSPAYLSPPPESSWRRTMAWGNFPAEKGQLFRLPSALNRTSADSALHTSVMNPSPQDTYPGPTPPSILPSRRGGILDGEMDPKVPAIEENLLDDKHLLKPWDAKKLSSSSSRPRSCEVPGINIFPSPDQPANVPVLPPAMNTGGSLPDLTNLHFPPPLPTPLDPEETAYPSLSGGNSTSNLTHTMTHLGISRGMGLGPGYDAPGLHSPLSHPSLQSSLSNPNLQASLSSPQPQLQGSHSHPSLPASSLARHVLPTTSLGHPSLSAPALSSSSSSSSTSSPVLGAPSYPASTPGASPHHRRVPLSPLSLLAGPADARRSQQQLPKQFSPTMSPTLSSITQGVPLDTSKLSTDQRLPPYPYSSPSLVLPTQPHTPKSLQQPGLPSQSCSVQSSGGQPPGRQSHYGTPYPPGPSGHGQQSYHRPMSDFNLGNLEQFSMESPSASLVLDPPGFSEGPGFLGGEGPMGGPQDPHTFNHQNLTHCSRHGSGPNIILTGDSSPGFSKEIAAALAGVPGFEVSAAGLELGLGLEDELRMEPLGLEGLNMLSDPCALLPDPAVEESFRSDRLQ

purified AMPK (AMP-activated protein kinase) (Upstate Biotech)
in vitro kinase assay, 32P incorporation [1]: Activated AMPK phosphorylated wild-type, but not Ser171Ala mutant GST-TORC2 (161-181) peptide in vitro | in vitro kinase assay, 32P incorporation [2]: Activated AMPK phosphorylated wild-type, but not Ser171Ala mutant GST-TORC2 (161-181) peptide in vitro

Source: patent publication US20100190693
